By Ki is commonly meant the equilibrium dissociation constant of an inhibitor or competing ligand from its target. The low end stands for a stronger hold on the target, the high end for a looser hold on the target.

*1 amine or outer side, *2 acyl side, *3 side chain or, on linkers, in order; H or OH if unused. Side-chain parts run from the residue outwards. The star is where a group is joined. C18 diacid = O=C(O)CCCCCCCCCCCCCCCCC(=O)*; γGlu = O=C(O)[C@H](CCC(=O)[*:2])N[*:1]; Isovaleryl = CC(C)CC(=O)*; Ahx = NCCCCCC(=O)O

From US20260015399A1 (Boehringer Ingelheim, published 2026) come the findings set out here.

T1: human NPY2 receptor (human, UniProt P49146 1-381)
T1 construct: whole, on cells; also called hNPY2-R; hNPY2R
T1 sequence (looked up): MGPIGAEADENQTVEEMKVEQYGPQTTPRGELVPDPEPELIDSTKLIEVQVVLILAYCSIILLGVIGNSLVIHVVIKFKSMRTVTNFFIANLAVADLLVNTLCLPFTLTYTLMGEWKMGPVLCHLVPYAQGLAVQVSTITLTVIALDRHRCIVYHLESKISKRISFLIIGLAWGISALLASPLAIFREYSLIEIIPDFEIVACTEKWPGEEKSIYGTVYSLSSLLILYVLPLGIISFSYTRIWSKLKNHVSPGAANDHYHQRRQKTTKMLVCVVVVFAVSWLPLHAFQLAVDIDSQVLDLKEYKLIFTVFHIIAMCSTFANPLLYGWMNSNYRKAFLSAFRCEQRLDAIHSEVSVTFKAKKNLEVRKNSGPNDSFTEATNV

B1: Compound 24 (peptide)
peptide: Isovaleryl-APEK([Ahx-γGlu-C18 diacid])PEEDSSPEELQRYYVALRHYYNWLTRQRY-NH2
SMILES: CC(C)CC(=O)N[C@@H](C)C(=O)N1CCC[C@H]1C(=O)N[C@@H](CCC(=O)O)C(=O)N[C@@H](CCCCNC(=O)CCCCCNC(=O)CC[C@H](NC(=O)CCCCCCCCCCCCCCCCC(=O)O)C(=O)O)C(=O)N1CCC[C@H]1C(=O)N[C@@H](CCC(=O)O)C(=O)N[C@@H](CCC(=O)O)C(=O)N[C@@H](CC(=O)O)C(=O)N[C@@H](CO)C(=O)N[C@@H](CO)C(=O)N1CCC[C@H]1C(=O)N[C@@H](CCC(=O)O)C(=O)N[C@@H](CCC(=O)O)C(=O)N[C@@H](CC(C)C)C(=O)N[C@@H](CCC(N)=O)C(=O)N[C@@H](CCCNC(=N)N)C(=O)N[C@@H](Cc1ccc(O)cc1)C(=O)N[C@@H](Cc1ccc(O)cc1)C(=O)N[C@H](C(=O)N[C@@H](C)C(=O)N[C@@H](CC(C)C)C(=O)N[C@@H](CCCNC(=N)N)C(=O)N[C@@H](Cc1c[nH]cn1)C(=O)N[C@@H](Cc1ccc(O)cc1)C(=O)N[C@@H](Cc1ccc(O)cc1)C(=O)N[C@@H](CC(N)=O)C(=O)N[C@@H](Cc1c[nH]c2ccccc12)C(=O)N[C@@H](CC(C)C)C(=O)N[C@H](C(=O)N[C@@H](CCCNC(=N)N)C(=O)N[C@@H](CCC(N)=O)C(=O)N[C@@H](CCCNC(=N)N)C(=O)N[C@@H](Cc1ccc(O)cc1)C(N)=O)[C@@H](C)O)C(C)C
B2: Compound 25 (peptide)
peptide: Isovaleryl-APEK([Ahx-γGlu-C18 diacid])PEADATPEELQRYYISLRHYYNWLTRQRY-NH2
SMILES: CC[C@H](C)[C@H](NC(=O)[C@H](Cc1ccc(O)cc1)NC(=O)[C@H](Cc1ccc(O)cc1)NC(=O)[C@H](CCCNC(=N)N)NC(=O)[C@H](CCC(N)=O)NC(=O)[C@H](CC(C)C)NC(=O)[C@H](CCC(=O)O)NC(=O)[C@H](CCC(=O)O)NC(=O)[C@@H]1CCCN1C(=O)[C@@H](NC(=O)[C@H](C)NC(=O)[C@H](CC(=O)O)NC(=O)[C@H](C)NC(=O)[C@H](CCC(=O)O)NC(=O)[C@@H]1CCCN1C(=O)[C@H](CCCCNC(=O)CCCCCNC(=O)CC[C@H](NC(=O)CCCCCCCCCCCCCCCCC(=O)O)C(=O)O)NC(=O)[C@H](CCC(=O)O)NC(=O)[C@@H]1CCCN1C(=O)[C@H](C)NC(=O)CC(C)C)[C@@H](C)O)C(=O)N[C@@H](CO)C(=O)N[C@@H](CC(C)C)C(=O)N[C@@H](CCCNC(=N)N)C(=O)N[C@@H](Cc1c[nH]cn1)C(=O)N[C@@H](Cc1ccc(O)cc1)C(=O)N[C@@H](Cc1ccc(O)cc1)C(=O)N[C@@H](CC(N)=O)C(=O)N[C@@H](Cc1c[nH]c2ccccc12)C(=O)N[C@@H](CC(C)C)C(=O)N[C@H](C(=O)N[C@@H](CCCNC(=N)N)C(=O)N[C@@H](CCC(N)=O)C(=O)N[C@@H](CCCNC(=N)N)C(=O)N[C@@H](Cc1ccc(O)cc1)C(N)=O)[C@@H](C)O
B3: Compound 30 (peptide)
peptide: Isovaleryl-APEK([Ahx-γGlu-C18 diacid])PPADATPEELQRYYVSLRHYYNWLTRQRY-NH2
SMILES: CC(C)CC(=O)N[C@@H](C)C(=O)N1CCC[C@H]1C(=O)N[C@@H](CCC(=O)O)C(=O)N[C@@H](CCCCNC(=O)CCCCCNC(=O)CC[C@H](NC(=O)CCCCCCCCCCCCCCCCC(=O)O)C(=O)O)C(=O)N1CCC[C@H]1C(=O)N1CCC[C@H]1C(=O)N[C@@H](C)C(=O)N[C@@H](CC(=O)O)C(=O)N[C@@H](C)C(=O)N[C@H](C(=O)N1CCC[C@H]1C(=O)N[C@@H](CCC(=O)O)C(=O)N[C@@H](CCC(=O)O)C(=O)N[C@@H](CC(C)C)C(=O)N[C@@H](CCC(N)=O)C(=O)N[C@@H](CCCNC(=N)N)C(=O)N[C@@H](Cc1ccc(O)cc1)C(=O)N[C@@H](Cc1ccc(O)cc1)C(=O)N[C@H](C(=O)N[C@@H](CO)C(=O)N[C@@H](CC(C)C)C(=O)N[C@@H](CCCNC(=N)N)C(=O)N[C@@H](Cc1c[nH]cn1)C(=O)N[C@@H](Cc1ccc(O)cc1)C(=O)N[C@@H](Cc1ccc(O)cc1)C(=O)N[C@@H](CC(N)=O)C(=O)N[C@@H](Cc1c[nH]c2ccccc12)C(=O)N[C@@H](CC(C)C)C(=O)N[C@H](C(=O)N[C@@H](CCCNC(=N)N)C(=O)N[C@@H](CCC(N)=O)C(=O)N[C@@H](CCCNC(=N)N)C(=O)N[C@@H](Cc1ccc(O)cc1)C(N)=O)[C@@H](C)O)C(C)C)[C@@H](C)O
B4: Compound 27 (peptide)
peptide: Isovaleryl-APEK([Ahx-γGlu-C18 diacid])PEEDAEPEESQRYYVSLRHYYNWLTRQRY-NH2
SMILES: CC(C)CC(=O)N[C@@H](C)C(=O)N1CCC[C@H]1C(=O)N[C@@H](CCC(=O)O)C(=O)N[C@@H](CCCCNC(=O)CCCCCNC(=O)CC[C@H](NC(=O)CCCCCCCCCCCCCCCCC(=O)O)C(=O)O)C(=O)N1CCC[C@H]1C(=O)N[C@@H](CCC(=O)O)C(=O)N[C@@H](CCC(=O)O)C(=O)N[C@@H](CC(=O)O)C(=O)N[C@@H](C)C(=O)N[C@@H](CCC(=O)O)C(=O)N1CCC[C@H]1C(=O)N[C@@H](CCC(=O)O)C(=O)N[C@@H](CCC(=O)O)C(=O)N[C@@H](CO)C(=O)N[C@@H](CCC(N)=O)C(=O)N[C@@H](CCCNC(=N)N)C(=O)N[C@@H](Cc1ccc(O)cc1)C(=O)N[C@@H](Cc1ccc(O)cc1)C(=O)N[C@H](C(=O)N[C@@H](CO)C(=O)N[C@@H](CC(C)C)C(=O)N[C@@H](CCCNC(=N)N)C(=O)N[C@@H](Cc1c[nH]cn1)C(=O)N[C@@H](Cc1ccc(O)cc1)C(=O)N[C@@H](Cc1ccc(O)cc1)C(=O)N[C@@H](CC(N)=O)C(=O)N[C@@H](Cc1c[nH]c2ccccc12)C(=O)N[C@@H](CC(C)C)C(=O)N[C@H](C(=O)N[C@@H](CCCNC(=N)N)C(=O)N[C@@H](CCC(N)=O)C(=O)N[C@@H](CCCNC(=N)N)C(=O)N[C@@H](Cc1ccc(O)cc1)C(N)=O)[C@@H](C)O)C(C)C
B5: Compound 28 (peptide)
peptide: Isovaleryl-APEK([Ahx-γGlu-C18 diacid])PPEDATPEEIQRYYVSLRHYYNWLTRQRY-NH2
SMILES: CC[C@H](C)[C@H](NC(=O)[C@H](CCC(=O)O)NC(=O)[C@H](CCC(=O)O)NC(=O)[C@@H]1CCCN1C(=O)[C@@H](NC(=O)[C@H](C)NC(=O)[C@H](CC(=O)O)NC(=O)[C@H](CCC(=O)O)NC(=O)[C@@H]1CCCN1C(=O)[C@@H]1CCCN1C(=O)[C@H](CCCCNC(=O)CCCCCNC(=O)CC[C@H](NC(=O)CCCCCCCCCCCCCCCCC(=O)O)C(=O)O)NC(=O)[C@H](CCC(=O)O)NC(=O)[C@@H]1CCCN1C(=O)[C@H](C)NC(=O)CC(C)C)[C@@H](C)O)C(=O)N[C@@H](CCC(N)=O)C(=O)N[C@@H](CCCNC(=N)N)C(=O)N[C@@H](Cc1ccc(O)cc1)C(=O)N[C@@H](Cc1ccc(O)cc1)C(=O)N[C@H](C(=O)N[C@@H](CO)C(=O)N[C@@H](CC(C)C)C(=O)N[C@@H](CCCNC(=N)N)C(=O)N[C@@H](Cc1c[nH]cn1)C(=O)N[C@@H](Cc1ccc(O)cc1)C(=O)N[C@@H](Cc1ccc(O)cc1)C(=O)N[C@@H](CC(N)=O)C(=O)N[C@@H](Cc1c[nH]c2ccccc12)C(=O)N[C@@H](CC(C)C)C(=O)N[C@H](C(=O)N[C@@H](CCCNC(=N)N)C(=O)N[C@@H](CCC(N)=O)C(=O)N[C@@H](CCCNC(=N)N)C(=O)N[C@@H](Cc1ccc(O)cc1)C(N)=O)[C@@H](C)O)C(C)C
B6: Compound 29 (peptide)
peptide: Isovaleryl-APEK([Ahx-γGlu-C18 diacid])PEADSSPEELQRYYVSLRHYYNWLTRQRY-NH2
SMILES: CC(C)CC(=O)N[C@@H](C)C(=O)N1CCC[C@H]1C(=O)N[C@@H](CCC(=O)O)C(=O)N[C@@H](CCCCNC(=O)CCCCCNC(=O)CC[C@H](NC(=O)CCCCCCCCCCCCCCCCC(=O)O)C(=O)O)C(=O)N1CCC[C@H]1C(=O)N[C@@H](CCC(=O)O)C(=O)N[C@@H](C)C(=O)N[C@@H](CC(=O)O)C(=O)N[C@@H](CO)C(=O)N[C@@H](CO)C(=O)N1CCC[C@H]1C(=O)N[C@@H](CCC(=O)O)C(=O)N[C@@H](CCC(=O)O)C(=O)N[C@@H](CC(C)C)C(=O)N[C@@H](CCC(N)=O)C(=O)N[C@@H](CCCNC(=N)N)C(=O)N[C@@H](Cc1ccc(O)cc1)C(=O)N[C@@H](Cc1ccc(O)cc1)C(=O)N[C@H](C(=O)N[C@@H](CO)C(=O)N[C@@H](CC(C)C)C(=O)N[C@@H](CCCNC(=N)N)C(=O)N[C@@H](Cc1c[nH]cn1)C(=O)N[C@@H](Cc1ccc(O)cc1)C(=O)N[C@@H](Cc1ccc(O)cc1)C(=O)N[C@@H](CC(N)=O)C(=O)N[C@@H](Cc1c[nH]c2ccccc12)C(=O)N[C@@H](CC(C)C)C(=O)N[C@H](C(=O)N[C@@H](CCCNC(=N)N)C(=O)N[C@@H](CCC(N)=O)C(=O)N[C@@H](CCCNC(=N)N)C(=O)N[C@@H](Cc1ccc(O)cc1)C(N)=O)[C@@H](C)O)C(C)C

The assay has as its target T1, human NPY2 receptor. The experiment in a line: RLB: displacement of 125I-PYY(1-36) from hNPY2R membranes. The protocol:
The filtration RLB assay was carried out in 96-well plates in a final volume of 100 μl per well. Freeze-dried test peptides were dissolved in 100% dimethyl sulfoxide (DMSO) to stock solutions of 1 mM and serial dilutions were performed in assay buffer (50 mM HEPES, 5 mM MgCl₂, 1 mM CaCl₂), pH 7.4) containing 0.2% ovalbumin. […] Next, 80 μL membranes (HTS066M, ChemiSCREEN™ Human Neuropeptide Y2 Receptor Membrane Preparation, CHEMICON) were added to each well to give a final protein concentration of 0.5 μg/well. The plates were sealed and incubated at room temperature for 2 hours in a plate shaker set at 400 rpm. The incubation was stopped by vacuum filtration onto 0.5% polyethylene amine (PEI) presoaked GF/C filters using a 96-well FilterMate™ harvester (Perkin Elmer) followed by four washes with 300 μl/well ice-cold wash buffer (50 mM HEPES, 500 mM NaCl, pH7.4). Filter plates were then dried for 60 min at room temperature and the bottom of the plates was sealed with backing tape UniFilter-96. Finally, 50 μl/well scintillation counter cocktail (Microscint20, Packard) was added and the radioactivity was counted in the Packard TopCount NXT scintillation counter. IC₅₀ values (the half maximal inhibitory concentration of the agonist) were calculated by nonlinear regression analysis of sigmoidal dose-response curves.
A general note: Displacement assays read how much labelled ligand stays bound in the presence of the test substance.
Turning to B1, the Ki amounted to 3.39 nM.

For the molecule B2, the Ki stood at 1.55 nM.

In turn, B3 showed an inhibitory constant (Ki) of 0.3 nM.

As to B4, the inhibition constant Ki was 10.5 nM.

Take B5: the inhibition constant (Ki) was 0.49 nM. Against the preceding molecule, the Ki is about 21-fold lower.

Consider B6, for which the Ki was determined as 1.36 nM. This Ki is about 2.8-fold higher than that of the molecule before.
